# Experiments:
# [1] = molecular target: His-tagged DC-UbP (human) (UniProt Q8WUN7); experiment: NMR titration; 15N-labelled DC-UbP (100 uM) titrated stepwise with unlabelled USP5, UbE1, FH or SCCH; 1H-15N HSQC, 20 mM phosphate, 50 mM NaCl, pH 6.5, 298 K
# [2] = molecular target: UbP_C (C-terminal part of DC-UbP, residues 129-234), His-tagged (human) (UniProt Q8WUN7); experiment: NMR titration; 15N-labelled UbP_C (200 uM; 150 uM for the affinity) titrated with USP5_UBA12 or USP5_ZnF; 1H-15N HSQC, 20 mM phosphate, 50 mM NaCl, pH 6.5, 298 K
# UbP_C (C-terminal part of DC-UbP, residues 129-234), His-tagged (human), sequence (Q8WUN7 129-234): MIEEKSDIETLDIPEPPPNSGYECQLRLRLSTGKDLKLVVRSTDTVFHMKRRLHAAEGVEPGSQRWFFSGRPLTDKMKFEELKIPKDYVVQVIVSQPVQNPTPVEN
# His-tagged DC-UbP (human), sequence (Q8WUN7 whole entry, the tested form may be a part): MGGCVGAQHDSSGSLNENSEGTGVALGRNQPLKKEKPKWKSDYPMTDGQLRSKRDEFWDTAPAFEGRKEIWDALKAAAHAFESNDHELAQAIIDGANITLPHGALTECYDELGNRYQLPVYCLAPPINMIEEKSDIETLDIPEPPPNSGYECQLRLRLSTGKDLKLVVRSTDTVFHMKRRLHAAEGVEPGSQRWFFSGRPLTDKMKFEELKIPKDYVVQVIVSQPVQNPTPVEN
mean relative peak intensity of the UBD domain of DC-UbP at 1:1 molar ratio (free DC-UbP = 1) [1],mean relative peak intensity of the UbL domain of DC-UbP at 1:1 molar ratio (free DC-UbP = 1) [1],Kd [2] [µM],Substance
0.56,0.27,,"USP5, recombinant, purified (from UniProt P45974 1-858) (enzyme)"
,,400,"USP5_UBA12 (tandem UBA domains of USP5, residues 625-749) (from UniProt P45974 625-749) (domain or fragment)"
